# The supplement of paper PMC9112550, “Optimization of the antimicrobial peptide Bac7 by deep mutational scanning” (BMC Biology, 2022)
# Test system: Escherichia coli TOP10
# Assay: shrunken log2 fold change of peptide-encoding DNA abundance (4.5 h post-induction vs induction); higher = less antimicrobial activity (less host growth inhibition)
# Conditions: time post-induction: 4.5 h; library: site-saturation at positions 5, 18, 19, 20
# 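Further: peptides expressed intracellularly from a pBAD plasmid library in pooled LB shake-flask culture, induced with 0.3% L-arabinose, DNA abundance read by NGS, three biological replicates, DESeq2 with apeglm shrinkage.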
row,Sequence,shrunken log2 fold change
1,RRIRFRPPRLPRPRPRPMTMPRP,-0.132
2,RRIRLRPPRLPRPRPRPSGTPRP,-0.114
3,RRIRPRPPRLPRPRPRPDQSPRP,0.021
4,RRIRPRPPRLPRPRPRPWVLPRP,-0.0962
5,RRIRKRPPRLPRPRPRPCIKPRP,0.193
6,RRIRNRPPRLPRPRPRPKQKPRP,0.0568
7,RRIRRRPPRLPRPRPRPKKCPRP,-0.325
8,RRIRCRPPRLPRPRPRPQTTPRP,-0.155
9,RRIRNRPPRLPRPRPRPRMVPRP,-0.289
10,RRIRRRPPRLPRPRPRPLNWPRP,0.296
11,RRIRVRPPRLPRPRPRPELGPRP,0.308
12,RRIRNRPPRLPRPRPRPNFRPRP,0.0289
13,RRIRTRPPRLPRPRPRPSEMPRP,-0.00622
14,RRIRYRPPRLPRPRPRPQMKPRP,-1.17
15,RRIRRRPPRLPRPRPRPVHTPRP,0.0317
16,RRIRDRPPRLPRPRPRPAWSPRP,0.168
17,RRIRVRPPRLPRPRPRPPEFPRP,0.265
18,RRIRDRPPRLPRPRPRPWHFPRP,-0.01
19,RRIRGRPPRLPRPRPRPWCIPRP,-0.153
20,RRIRGRPPRLPRPRPRPDHPPRP,-0.0241
21,RRIRCRPPRLPRPRPRPNPRPRP,0.378
22,RRIRRRPPRLPRPRPRPLFHPRP,0.0745
23,RRIRIRPPRLPRPRPRPTVDPRP,0.11
24,RRIRHRPPRLPRPRPRPDQIPRP,-0.0166
25,RRIRSRPPRLPRPRPRPGDQPRP,0.0164

row,Sequence,shrunken log2 fold change
1,RRIRQRPPRLPRPRPRPWHKPRP,-0.334
2,RRIRARPPRLPRPRPRPIYQPRP,0.0519
3,RRIRYRPPRLPRPRPRPRTWPRP,-0.0833
4,RRIRCRPPRLPRPRPRPFSCPRP,0.0218
5,RRIRRRPPRLPRPRPRPNQLPRP,-0.178
6,RRIRNRPPRLPRPRPRPCHIPRP,-0.366
7,RRIRHRPPRLPRPRPRPCNQPRP,-0.185
8,RRIRNRPPRLPRPRPRPESGPRP,-0.0271
9,RRIRDRPPRLPRPRPRPIMFPRP,0.0387
10,RRIRKRPPRLPRPRPRPGCWPRP,0.466
11,RRIRQRPPRLPRPRPRPWLDPRP,0.19
12,RRIRSRPPRLPRPRPRPLTIPRP,-0.201
13,RRIRGRPPRLPRPRPRPWMVPRP,0.213
14,RRIRHRPPRLPRPRPRPYNYPRP,-0.00747
15,RRIRFRPPRLPRPRPRPRSVPRP,-0.00149
16,RRIRNRPPRLPRPRPRPESQPRP,-0.00881
17,RRIRERPPRLPRPRPRPATLPRP,-0.274
18,RRIRMRPPRLPRPRPRPVARPRP,0.407
19,RRIRERPPRLPRPRPRPWISPRP,0.0119
20,RRIRCRPPRLPRPRPRPMDAPRP,-0.0146
21,RRIRPRPPRLPRPRPRPDICPRP,0.0683
22,RRIRHRPPRLPRPRPRPESAPRP,0.368
23,RRIRMRPPRLPRPRPRPFPWPRP,0.114
24,RRIRERPPRLPRPRPRPHFMPRP,-0.221
25,RRIRVRPPRLPRPRPRPSISPRP,-0.357

row,Sequence,shrunken log2 fold change
1,RRIRPRPPRLPRPRPRPPIYPRP,0.0772
2,RRIRFRPPRLPRPRPRPHSNPRP,-0.84
3,RRIRARPPRLPRPRPRPCAMPRP,0.397
4,RRIRSRPPRLPRPRPRPEQTPRP,0.709
5,RRIRVRPPRLPRPRPRPDLPPRP,-0.377
6,RRIRDRPPRLPRPRPRPDCIPRP,0.438
7,RRIRQRPPRLPRPRPRPAENPRP,0.0325
8,RRIRHRPPRLPRPRPRPKQKPRP,-0.00654
9,RRIRKRPPRLPRPRPRPYKKPRP,-0.201
10,RRIRERPPRLPRPRPRPCRKPRP,-0.103
11,RRIRQRPPRLPRPRPRPVTYPRP,-0.219
12,RRIRKRPPRLPRPRPRPMESPRP,0.0143
13,RRIRWRPPRLPRPRPRPLTQPRP,0.307
14,RRIRVRPPRLPRPRPRPVKFPRP,-0.133
15,RRIRGRPPRLPRPRPRPQGTPRP,-0.0716
16,RRIRCRPPRLPRPRPRPILNPRP,-0.431
17,RRIRQRPPRLPRPRPRPGGFPRP,0.0441
18,RRIRIRPPRLPRPRPRPINPPRP,-0.362
19,RRIRTRPPRLPRPRPRPMQDPRP,0.118
20,RRIRERPPRLPRPRPRPMCCPRP,-0.113
21,RRIRERPPRLPRPRPRPYPLPRP,-0.192
22,RRIRGRPPRLPRPRPRPIFNPRP,0.051
23,RRIRLRPPRLPRPRPRPDKKPRP,-0.0455
24,RRIRARPPRLPRPRPRPQTFPRP,-0.528
25,RRIRMRPPRLPRPRPRPNTIPRP,-0.3

row,Sequence,shrunken log2 fold change
1,RRIRCRPPRLPRPRPRPAQHPRP,0.0537
2,RRIRGRPPRLPRPRPRPMTFPRP,0.536
3,RRIRFRPPRLPRPRPRPNGFPRP,0.000958
4,RRIRARPPRLPRPRPRPSTQPRP,0.265
5,RRIRERPPRLPRPRPRPVFPPRP,0.242
6,RRIRYRPPRLPRPRPRPEPYPRP,-0.288
7,RRIRKRPPRLPRPRPRPVYVPRP,-0.0394
8,RRIRWRPPRLPRPRPRPMHHPRP,-0.261
9,RRIRVRPPRLPRPRPRPDQSPRP,-0.053
10,RRIRERPPRLPRPRPRPEDTPRP,-0.343
11,RRIRWRPPRLPRPRPRPHWTPRP,-0.158
12,RRIRTRPPRLPRPRPRPCFDPRP,-0.0899
13,RRIRSRPPRLPRPRPRPHNMPRP,-0.798
14,RRIRGRPPRLPRPRPRPKVHPRP,0.598
15,RRIRHRPPRLPRPRPRPCMTPRP,0.0183
16,RRIRFRPPRLPRPRPRPSYSPRP,-0.903
17,RRIRWRPPRLPRPRPRPAGNPRP,0.396
18,RRIRDRPPRLPRPRPRPNHPPRP,-0.222
19,RRIRYRPPRLPRPRPRPTPIPRP,-0.158
20,RRIRKRPPRLPRPRPRPVICPRP,0.115
21,RRIRLRPPRLPRPRPRPVQPPRP,0.653
22,RRIRYRPPRLPRPRPRPHHDPRP,-0.917
23,RRIRLRPPRLPRPRPRPINQPRP,-0.321
24,RRIRMRPPRLPRPRPRPDPHPRP,0.0256
25,RRIRQRPPRLPRPRPRPLCVPRP,-0.183

row,Sequence,shrunken log2 fold change
1,RRIRNRPPRLPRPRPRPVQEPRP,-0.0428
2,RRIRVRPPRLPRPRPRPSLAPRP,-0.0683
3,RRIRPRPPRLPRPRPRPEFVPRP,-0.0384
4,RRIRCRPPRLPRPRPRPCIYPRP,-0.253
5,RRIRIRPPRLPRPRPRPLNLPRP,-0.597
6,RRIRTRPPRLPRPRPRPSGGPRP,0.863
7,RRIRARPPRLPRPRPRPLMAPRP,0.554
8,RRIRFRPPRLPRPRPRPANEPRP,0.0451
9,RRIRHRPPRLPRPRPRPPFMPRP,0.0707
10,RRIRDRPPRLPRPRPRPTNNPRP,0.0553
11,RRIRTRPPRLPRPRPRPDMDPRP,0.00854
12,RRIRMRPPRLPRPRPRPWVRPRP,0.0882
13,RRIRVRPPRLPRPRPRPTYNPRP,-0.769
14,RRIRQRPPRLPRPRPRPLLTPRP,-0.235
15,RRIRRRPPRLPRPRPRPLESPRP,0.0173
16,RRIRLRPPRLPRPRPRPIIRPRP,-0.19
17,RRIRQRPPRLPRPRPRPPLYPRP,0.233
18,RRIRRRPPRLPRPRPRPWSWPRP,-0.0122
19,RRIRCRPPRLPRPRPRPTGGPRP,0.561
20,RRIRCRPPRLPRPRPRPLGMPRP,-0.433
21,RRIRPRPPRLPRPRPRPGETPRP,0.117
22,RRIRNRPPRLPRPRPRPVWRPRP,0.636
23,RRIRVRPPRLPRPRPRPQWAPRP,-0.0201
24,RRIRPRPPRLPRPRPRPTYTPRP,-0.272
25,RRIRERPPRLPRPRPRPNNVPRP,-0.28
